{
  "source": "paper PMC5913134",
  "about": "“The IL-33-PIN1-IRAK-M axis is critical for type 2 immunity in IL-33-induced allergic airway inflammation” (Nature Communications, 2018)",
  "molecules": {"B1": {"name": "IL-33: Recombinant mouse IL-33 purchased from BioLegend (protein, UniProt Q8BVZ5 1-266, looked up)", "Interleukin-33": "MRPRMKYSNSKISPAKFSSTAGEALVPPCKIRRSQQKTKEFCHVYCMRLRSGLTIRKETSYFRKEPTKRYSLKSGTKHEENFSAYPRDSRKRSLLGSIQAFAASVDTLSIQGTSLLTQSPASLSTYNDQSVSFVLENGCYVINVDDSGKDQEQDQVLLRYYESPCPASQSGDGVDGKKLMVNMSPIKDTDIWLHANDKDYSVELQRGDVSPPEQAFFVLHKKSSDFVSFECKNLPGTYIGVKDNQLALVEEKDESCNNIMFKLSKI"}},
  "key": {"PIN1": {"test_system": "PIN1", "test": "PIN1 enzymatic (PPIase) activity in DC2.4 cells", "type": "cell-based, C57BL/6", "details": "IL-33 100 ng/ml, 5 min, substrate Suc-Ala-Glu-Pro-Phe-pNa", "protocol": "DC2.4 cell line were either treated with 100ng/ml IL-33 for indicate time (0, 5 and 15 min). The cells were harvested and homogenized in a reaction buffer containing 100 mM NaCl, 50 mM HEPES, pH 7, 2 mM DTT, and 0.04 mg/ml BSA. The lysates were cleared by centrifugation at 12,000 g for 10 minutes (4 °C). PPIase activity was measured using equal amounts of […] cytoplasmic lysates and α-chymotrypsin using a synthetic tetrapeptide substrate Suc-Ala-Glu-Pro-Phe-pNa (Peptides International). Absorption at 390 nm was measured using an Ultrospec 2000 spectrophotometer. The results are expressed as the mean of 3 measurements from a single experiment and are representative of 3 independent experiments."}, "PIN1-IRAK-M interaction": {"test_system": "PIN1-IRAK-M interaction", "test": "GST-PIN1 pulldown of IRAK-M from DC2.4 cell extracts", "type": "cell-based, C57BL/6", "details": "100 ng/ml, 1 h, DC2.4 extracts", "protocol": "Fig. 2 IL-33 induces IRAK-M phosphorylation and binding to PIN1. a GST PIN1 pulldown assay with DC2.4 cell extracts either non-treated or treated with IL-33 (100 ng/ml) or LPS (100ng/ml) for 1 h. […] The cells were washed with fresh medium and treated with 100 ng/ml IL-33 for the indicated times prior to IRAK-M immunoprecipitation. d DC2.4 cells stably expressing IRAK-M were treated with IL-33 and at the indicated time points were subjected to CO-IP using anti-PIN1 antibody and blotted for IRAK-M. e HEK293 cells were transfected with different IRAK-M constructs expressing the N’ terminal domain (aa1-220), the middle portion of the protein (aa220-440) or the C’ terminal domain (aa 440-630), and then treated with IL-33, followed by CO-IP for PIN1. f DC2.4 cells stably expressing IRAK-M were treated with IL-33 and subjected to GST or GST-PIN1 pull-down.\nGlutathione-Sepharose 4B (Amersham) coupled with glutathione S-transferase (GST) or GST-PIN1 and washed with 150 mM NaCl, 20 mM Tris-HCl (pH 8), 1 mM MgCl2, and 0.1% NP-40 was mixed with 1 mg of total protein extract for 3 h at 4 °C. The beads were then washed extensively, and the protein was eluted with 20 mM reduced glutathione. The proteins were resolved by SDS-PAGE and visualized by Western analysis or autoradiography. […]"}, "[1]": {"test_system": "Il6, Csf3, Cxcl2 and Ccl5 expression in DC2.4 cells", "test": "qRT-PCR of Il6, Csf3, Cxcl2 and Ccl5 in DC2.4 cells", "type": "cell-based, C57BL/6", "details": "IL-33, pLKO control DC2.4 cells", "procedure": "Also as indicated, some cells were pretreated for 3 days with 5 μM or 10 μM of ATRA before IL-33 induction. e Relative gene expression of Il6, Csf3, Cxcl2 and Ccl5 in the different samples as in d normalized to actin. f IRAK-M was stably expressed in pLKO or TET on shPin1 expressing cells, followed by induction with IL-33, before western blot to examine protein expression of IRAK-M, PIN1 and tubulin as well as g qRT-PCR to determine the relative gene expression for Il6, Csf3, Cxcl2 and Ccl5 in the different samples.\nSYBR Green PCR Master Mix (Applied Biosystems, Foster City, CA) was used for two-step real-time RT-PCR analysis on an Applied Biosystems StepOnePlus Real Time PCR instrument. […] Expression value of the targeted gene in a given sample was normalized to the corresponding expression of Actin. The 2^–ΔΔCt method was used to calculate relative expression of the targeted genes."}, "[2]": {"test_system": "WT, PIN1 KO and IRAK-M KO mice", "test": "IL-33-induced airway inflammation in mice", "type": "in vivo, mouse", "details": "for BALF TH2 cytokines (IL-4, -5 and -13): IL-33 intranasal", "protocol": "Male mice in each group, 3-5 weeks old were anesthetized using Isoflurane. The mice were treated intranasal with 200ng/mice/day for four continues days. By the fifth day the mice were killed by CO2 suffocation, and bronchial alveolar lavage fluid (BALF) was extracted using PBS. The lungs were extracted and fixed using 10% para formaldehyde. Immunofluresence of slide sections was performed. Slides were analyzed using anti-PIN1 antibodies and anti-IRAK-M antibodies or IgG as control and were counterstained using DAPI. In some cases, cells obtained from BALF were cytospined and the cells were fixed and stained in the same manner. For staining of the cells, Diff-Quick (Diff-Quik) Staining Protocol were used. All animal work was carried out in compliance with the ethical regulations approved by the Animal Care Committee, Beth Israel Deaconess Medical Center, Boston, MA, USA. The permission was granted to perform animal experiments by the Institutional Animal Care and Use Committee at Beth Israel Deaconess Medical Center, Boston, MA, USA."}, "[3]": {"test_system": "naive CD4^+ cells co-cultured with BMDCs", "test": "BMDC / naive CD4+ T cell co-culture TH2 polarization, IL-5 and IL-13 secretion", "type": "cell-based, C57 B6 mice", "details": "WT BMDC + naive CD4+ T cells, IL-33 50 ng/ml, 5 days", "protocol": "Supplementary Figure 7. IRAK-M KO or Pin1 KO derived bone marrow dendritic cells attenuates Naïve TH2 cell differentiation upon IL-33 induction in co culture experiment. Naïve CD4+ T cells isolated from C57 B6 mice were cultured with or without IL-33 (50ng/ml) and BMDCs isolated from WT, IRAK-M KO (a) or Pin1 KO mice (b) in a 1:5 ratio for 5 days with no antigen being added. In some cases as indicated 5 µM of ATRA was added to the medium two days prior to T cell co culturing and during the experiment. Supernatants were analyzed for cytokines on day 5. The data were analyzed by a Student's two-tailed t test and the values are reported as mean ± standard errors of the means (SEM). *- statistical significance (P<0.05), **- significance (P<0.01)."}, "IRAK-M": {"test_system": "IRAK-M", "test": "IRAK-M nuclear localization in DC2.4 cells", "type": "cell-based, C57BL/6", "details": "DC2.4 cells, after IL-33 induction", "protocol": "Suppl em enta ry Figur e 3. a DAPI IR AK-M Pin1 Mergeb […]\nSupplementary Figure 3. Pin1 targets IRAK-M and promotes its nuclear translocation upon IL-33 induction.\n(a) Immunostaining for IRAK-M and Pin1 in DC2.4 cells before and after IL-33 treatment. ( b) DC2.4 cells were treated with IL-33 and subjected to nuclear/cytoplasmic fractionation, followed by Western blot for IRAK-M with actin as a cytoplasmic marker and Fox1 as a nuclear marker. C- cytoplasmic; N- Nuclear.\n(c) Cytospin slides from BALF of the treated WT mice as indicated, were co stained for DC205 and IRAK-M.\n(d) IRAK-M or its mutants S110E or P111A were stably expressed in DC2.4 cells and their localization and Pin1 localization were monitored by immunostaining. (e) GFP-IRAK-M were expressed in Pin1 KO MEFs either with or without RFP-Pin1 as indicated, and their localization was monitored. Scale = 50 µm.\n(also on this page, place not known: Control +IL-33: b DAPIe MergeGFP RFP GFP- GFP-IRAK-M/ RFP MergeIRAK-M Pin1DAPI ControlIL-33 Mergec Supplementary Figure IRAK-M IRAK-M (b) IL-33 IRAK-M IRAK-M Pin1) […]"}},
  "data": [
    {"molecule": "B1", "values": [
      {"measurement": "PIN1 activity", "setting": "PIN1", "value": "dramatically elevated PIN1 activity"},
      {"measurement": "PIN1-IRAK-M interaction", "setting": "PIN1-IRAK-M interaction", "value": "specific interaction"},
      {"measurement": "expression of the four target genes", "setting": "[1]", "value": "upregulated"},
      {"measurement": "response (infiltrates, cell counts)", "setting": "[2]; PIN1 KO mice, intranasal 200 ng/mice/day, 4 days", "value": "very mild responses"},
      {"measurement": "BALF TH2 cytokines (IL-4, -5 and -13)", "setting": "[2]; PIN1 KO or IRAK-M KO mice", "value": "dramatically attenuated"},
      {"measurement": "BALF TH2 cytokines (IL-4, -5, -6 and -13)", "setting": "[2]; PIN1 KO vs WT mice, IL-33 intranasal 200 ng/mice/day, 4 days", "value": "drastically lower"},
      {"measurement": "BALF TH2 cytokines (IL-4, -5 and -13)", "setting": "[2]; WT mice", "value": "high levels of TH2 cytokines"},
      {"measurement": "lung inflammation", "setting": "[2]; WT mice, intranasal 200 ng/mice/day, 4 days", "value": "moderate to severe inflammation and high levels of infiltrating cells, especially eosinophils"},
      {"measurement": "lung inflammation and bronchial remodeling", "setting": "[2]; WT mice, intranasal IL-33", "value": "severe lung inflammation and bronchial remodeling"},
      {"measurement": "IRAK-M expression in lung cells", "setting": "[2]; WT mice, intranasal IL-33, immunostaining", "value": "dramatically increased IRAK-M expression"},
      {"measurement": "lung expression of Il6, Csf3, Cxcl2 and Ccl5", "setting": "[2]; WT mice, whole lung tissue, qRT-PCR", "value": "upregulated"},
      {"measurement": "IL-5 and IL-13 secretion", "setting": "[3]", "value": "high levels of IL-5 and -13"},
      {"measurement": "IRAK-M nuclear localization", "setting": "IRAK-M", "value": "also evident in the nucleus"}
    ]}
  ]
}
